test: soluble on expression in E. coli; label from the status in PepcDB or PDB records

Row | Sequence | soluble on expression in E. coli
1 | MAKGIPVLEIFGPTIQGEGMVIGQKTMFVRTAGCDYSCSWCDSAFTWDGSAKKDIRWMTAEEIFAELKDIGGDAFSHVTISGGNPALLKQLDAFIELLKENNIRAALETQGTVYQDWFTLIDDLTISPKPPSSKMVTNFQKLDHILTSLQENDRQHAVSLKVVIFNDEDLEFAKTVHKRYPGIPFYLQVGNDDVHTTDDQSLIAHLLGKYEALVDKVAVDAELNLVRVLPQLHTLLWGNKRGV | not soluble
2 | MRRNSKERKNRATRRSQGSYQEIIGRTWIFRGAHRGRVTRRNIIWHELIGLRVRIVGSTHPAFVGIEGYVIDETRNMLVIAGDRIWKVPKDVCIFEFEADDGTKIKIPGERLVGRPEMRLKKRWKKWLEHHHHHH | not soluble
3 | MGHHHHHHSHDGQLFCKKDYWARYGESCHGCSEQITKGLVMVAGELKYHPECFICLTCGTFIGDGDTYTLVEHSKLYCGHCYYQTVVTPVIEQILPDSPGSHLPHTVTLVSIPASSHGKRGLSVSIDPPHGPPGCGTEHSHTVRVQGVDPGCMSPDVKNSIHVGDRILEINGTPIRNVPLDEIDLLIQETSRLLQLTLEHDP | not soluble
4 | ADTFNLAKDIHSRILSIDTHTDTPLWFKNGYSVGLRKDNMVSIPKMEEGKLDAQFLAAFIWQGKRDDASSQKAVESTTRLIQSIYDEVEQYKDFCGIALTEEDLVRLKNEGKKAFFIGIENGYAIGKDLKNIKKYKQMGVNYITLCHSYDNDICHSSTHTEDATQGLTQFGREVVKEMNRLGIMIDISHASEGTFWDVIKYSAQPIIASHSSSKALCDHDRNLTDEQLRALAKNGGVAQLCLLDAYINKKTKAASICDAVEHLDHMIKVAGIDHVGIGTDFDGGGGLQGCRGDNDLINLTIKMIEKGYTEEDLRKIWGGNLLRVMKQVQEAPLLSSKKRR | not soluble
5 | MSNSHHTSMRGNDMSDNIRVGLIGYGYASKTFHAPLIAGTPGLELAVISSSDETKVKADWPTVTVVSEPKHLFNDPNIDLIVIPTPNDTHFPLAKAALEAGKHVVVDKPFTVTLSQARELDALAKSLGRVLSVFHNRRWDSDFLTLKGLLAEGVLGEVAYFESHFDRFRPQVRDRWREQGGPGSGIWYDLAPHLLDQAITLFGLPVSMTVDLAQLRPGAQSTDYFHAILSYPQRRVILHGTMLAAAESARYIVHGSRGSYVKYGLDPQEERLKNGERLPQEDWGYDMRDGVLTRVEGEERVEETLLTVPGNYPAYYAAIRDALNGDGENPVPASQAIQVMELIELGIESAKHRATLCLA | soluble
6 | MSTRKDYLSFIAVAAHEFVHTWNVKQYRPKGIVPYDYQQENYSNLLWLVEGSTSYLQYQLLLRGNLMTTDEFFTALAKRITAHAHKPGKESQSVAQASFDAWISEGGDYGNNHSVNIYSEGFLASWLLDFDILAKTALEHHHHHH | not soluble
7 | MRGLAVLVLLVFAVQVAAAEDFRPVVFVHGLAGSAGQFESQGMRFAANGYPAEYVKTFEYDTISWALVVETDMLFSGLGSEFGLNISQIIDPETLDKILSKSRERLIDETFSRLDRVIDEALAESGADKVDLVGHSMGTFFLVRYVNSSPERAAKVAHLILLDGVWGVDAPEGIPTLAVFGNPKALPALGLPEEKVVYNATNVYFNNMTHVQLCTSPETFAVMFEFINGYKPATTDIVPQDGDYVKVKGKFLAFATNGDVSGWLSIYPIDENGKRLTRLPVKFMRVKGDFEVRLRKGQLYEFQFRKDFSPIIYHYYRAPFVRDDLWARFLVSKPPLDVELLILPERLSPAAKETSGLLLIRYKEMIGEYDEEIGGVDEVYVNGVNVCTERICPIERAVNGLWVFDRGADGKSDLDREVVRYSIMPFMSAADLVVPAEGTISIAVKSRTGGEESFTIPAWSADRHSIIVQFSDYIVDKLAAALEH | soluble
8 | MGICVSFRREDSNSSPTVKIVTVNGDLREYNVPVIASQVLEAESAAAYSSSSSSRPSSYFICDSDSLYYDDFIPAIKSEEPLQADQIYFVLPISKRQSRLTASDMAALAVKASVAIQNSVKKESRRRKKVRISPVMMLTGSNDSVNGNGSETTVKKGRPFVSKTAPVKASSGINRSGSVRNLRRYTSKRAKLAVRSFRLKLSTIYEGSVV | not soluble

— the DeepSol protein solubility set
